The numbers were not newly measured in article PMC10810742, which cites them from elsewhere.

The target in this series is Ubiquitin (Homo sapiens) (UniProt P0CG47).

Sequence of CteC (Q7NY09 whole entry): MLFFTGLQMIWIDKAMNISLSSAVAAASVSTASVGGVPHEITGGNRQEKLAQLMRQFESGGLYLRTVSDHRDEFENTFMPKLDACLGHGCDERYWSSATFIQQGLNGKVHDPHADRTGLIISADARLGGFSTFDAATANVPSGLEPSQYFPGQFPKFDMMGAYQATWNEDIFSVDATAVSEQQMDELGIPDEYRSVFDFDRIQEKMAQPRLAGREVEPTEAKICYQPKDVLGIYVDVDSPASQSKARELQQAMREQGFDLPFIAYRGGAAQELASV

By Kd is commonly meant the free concentration of one partner at which half of the binding sites on the other are occupied at equilibrium, for simple one-to-one binding. Take CteC (from UniProt Q7NY09): the Kd was 78.7 µM.
